Test results taken from paper PMC7641770, “Novel polyadenylylation-dependent neutralization mechanism of the HEPN/MNT toxin/antitoxin system” (Nucleic Acids Research, 2020).

Experiments:
[1] = molecular target: T1, MntA antitoxin (SO_3165) of Shewanella oneidensis, untagged (Shewanella oneidensis, UniProt Q8ECH7 1-139); assay: pull-down; details: partners not purified
T1 construct: also called MNT antitoxin; native MntA

crystal structure = molecular target: the molecule itself; assay: crystal structure
[2] = molecular target: the molecule itself; assay: crystal structure; co-expressed complex purified (Superdex 200, 20 mM Tris pH 8.0, 150 mM NaCl), sitting drop vapor diffusion at 16°C; (HepT)6-(MntA)2 hetero-octamer
[3] = molecular target: T1, MntA antitoxin (SO_3165) of Shewanella …; assay: as above; details: both partners purified
[4] = molecular target: MntA D39E,D41E (SO_3165) of Shewanella oneidensis, untagged (Shewanella oneidensis, UniProt Q8ECH7 1-139, D39E | D41E); assay: crystal structure; details: both partners purified

B1: HepT toxin (SO_3166) of Shewanella oneidensis, C-terminal His6 tag, polyadenylylated at Y104 by co-produced MntA (natural protein, UniProt Q8ECH6 1-133, looked up)
chain: MNDIIINKIATIKRCIKRIQQVYGDGSQFKQDFTLQDSVILNLQRCCEACIDIANHINRQQQLGIPQSSRDSFTLLAQNNLITQPLSDNLKKMVGLRNIAVHDYQELNLDIVVHVVQHHLEDFEQFIDVIKAE
notes: also called HEPN toxin; modified HepT
- binding result [1]: binds
- binding result (crystal structure): binds

B2: HepT Y104A (SO_3166) of Shewanella oneidensis, C-terminal His6 tag (natural protein, UniProt Q8ECH6 1-133, looked up)
chain: MNDIIINKIATIKRCIKRIQQVYGDGSQFKQDFTLQDSVILNLQRCCEACIDIANHINRQQQLGIPQSSRDSFTLLAQNNLITQPLSDNLKKMVGLRNIAVHDAQELNLDIVVHVVQHHLEDFEQFIDVIKAE
notes: also called unmodified HepT^Y104A
- binding result [2]: binds
- binding result [3]: binds

B3: HepT toxin (SO_3166) of Shewanella oneidensis, C-terminal His6 tag, unmodified (co-produced with an inactive MntA variant) (natural protein, UniProt Q8ECH6 1-133, looked up)
chain: MNDIIINKIATIKRCIKRIQQVYGDGSQFKQDFTLQDSVILNLQRCCEACIDIANHINRQQQLGIPQSSRDSFTLLAQNNLITQPLSDNLKKMVGLRNIAVHDYQELNLDIVVHVVQHHLEDFEQFIDVIKAE
notes: also called unmodified HepT
- binding result [4]: binds
